{
  "source": "paper doi:10.1101/710897",
  "biological_target": "UapA K73A/R133A/R421A/T401P, purified, detergent-solubilized (Aspergillus nidulans) (UniProt Q07307)",
  "assay": "native MS",
  "data": [
    {"substance": "UapA K73A/R133A/R421A/T401P, purified, detergent-solubilized (from UniProt Q07307 1-574) (natural protein)", "values": [
      {"measurement": "stoichiometry N", "result": 2}
    ]}
  ]
}
